Experimental data as given in PMC4352251, “The VieB auxiliary protein negatively regulates the VieSA signal transduction system in Vibrio cholerae” (BMC Microbiology, 2015).

Biological target: VieS-C (untagged cytoplasmic portion of the sensor kinase VieS) (UniProt O68317)
Assay: composition-gradient MALS (CG-MALS)

In the case of “VieB D62E (His6 tag removed) (from UniProt O68319 1-553) (natural protein)”, the Kd is reported as 197 nM and the stoichiometry N (VieB D62E monomer per VieS-C dimer) is reported as 1.
